*1 amine or outer side, *2 acyl side, *3 side chain or, on linkers, in order; H or OH if unused. Where a SMILES comes first, the peptide text is derived from it. Bridges are numbered along the chain shown (N, C = ends). Roman numbers before positions name the chains, in order. [ ]: non-standard residue; d: D form. The star is where a group is joined. ξ: configuration not given here. Hexanoyl(6-succinimido-3yl) = O=C1CC([*:1])C(=O)N1CCCCCC(=O)[*:2]; Pteroyl = Nc1nc2ncc(CNc3ccc(C(=O)*)cc3)nc2c(=O)[nH]1; Dolaproine(all-ξ) = COC(C(C)C(=O)[*:2])C1CCCN1[*:1]; X1 = CCC(C)C(C(CC(=O)[*:2])OC)N(C)[*:1]; γGlu = O=C(O)[CH](CCC(=O)[*:2])N[*:1]; PABC = O=C(OCc1ccc(N[*:1])cc1)[*:2]; Cit = NC(=O)NCCC[CH](N)C(=O)O; NMeV = CN[CH](C(=O)O)C(C)C; X2 = CC(N*)C(O)c1ccccc1
Tests used:
[1] = pH confirmation in freeze-dried form, stability at 30° C. for 1 month; assay type: physicochemical; conditions: pH range of 6.9 to 7.7, 30° C. for 1 month
Procedure: An aqueous solution containing LDC10B (5 mg/mL), mannitol (40 mg/mL), sucrose (10 mg/mL) and tromethamine (0.765 mg/mL) was prepared, and the pH was adjusted to 6.9, 7.3 and 7.7 with dilute hydrochloric acid, respectively; the resulting solutions were filtered and sub-packaged into vials, half of a stopper was pressed into the vial, freeze-drying was performed, and the vials were capped. The stability of each sample was investigated at 30° C. for 1 month.

[2] = Final prescription and process confirmation, stability at 25° C. and 40° C.; assay type: physicochemical; conditions: final prescription (Example 7); for % Moisture / % Total impurity / Re-dissolution time s: freeze-dried; for pH value: re-dissolution pH
Procedure: In view of the results of the prescription screening experiment, the prescription process confirmation experiment was carried out to investigate the stability of the final prescription.

Q: For `CCC(C)C(C(CC(=O)N1CCCC1C(OC)C(C)C(=O)NC(C)C(O)c1ccccc1)OC)N(C)C(=O)C(NC(=O)C(C(C)C)N(C)C(=O)OCc1ccc(NC(=O)C(CCCNC(N)=O)NC(=O)C(NC(=O)CCCCCN2C(=O)CC(SCC(NC(=O)CCC(NC(=O)c3ccc(NCc4cnc5[nH]c(N)nc(=O)c5n4)cc3)C(=O)O)C(=O)NC(CCCCN)C(=O)NC(CCC(=O)O)C(=O)NC(Cc3ccccc3)C(=O)NC(CC(C)C)C(=O)NC(Cc3cnc[nH]3)C(=O)N3CCCC3C(=O)NC(CO)C(=O)NC(CCCCN)C(=O)NC(C(=O)NC(CC(=O)O)C(=O)NC(CC(C)C)C(=O)N3CCCC3C(=O)NC(CCCNC(=N)N)C(=O)O)C(C)C)C2=O)C(C)C)cc1)C(C)C` (stereo not shown) [LDC10B] (I: {Pteroyl-γGlu}-CKEFLHPSKVDLPR-OH / II: V[Cit][PABC][NMeV]V[X1][Dolaproine(all-ξ)]-X2; linker I:1-II:N via Hexanoyl(6-succinimido-3yl); configuration not given here), which “quality of the freeze-dried preparation” value [1] is on record?
A: The value was “stable”.

Q: What about the “% Moisture” value ([2]; 25° C., 0 day) of the same compound?
A: Its value is 0.42%.

Q: And the “% Total impurity” value ([2]; 25° C., 0 day)?
A: Its value is 0.44%.

Q: What about the Re-dissolution time s ([2]; 25° C., 0 day) of the same compound?
A: The Re-dissolution time s was 160 s.

Q: What about the “% Moisture” value ([2]; 25° C., 1 month) of the same compound?
A: Its value is 1.79%.

Q: What about the “% Total impurity” value ([2]; 25° C., 1 month) of the same compound?
A: Its value is 0.51%.

Q: What about the Re-dissolution time s ([2]; 25° C., 1 month) of the same compound?
A: Its Re-dissolution time s is 154 s.

Q: What about the “% Moisture” value ([2]; 25° C., 2 months) of the same compound?
A: The value was 1.97%.

Q: What about the “% Total impurity” value ([2]; 25° C., 2 months) of the same compound?
A: Its value is 0.61%.

Q: And the Re-dissolution time s ([2]; 25° C., 2 months)?
A: The Re-dissolution time s was 114 s.

Q: And the “% Moisture” value ([2]; 25° C., 3 months)?
A: Its value is 2.19%.

Q: And the “% Total impurity” value ([2]; 25° C., 3 months)?
A: Its value is 0.81%.

Q: And the Re-dissolution time s ([2]; 25° C., 3 months)?
A: Its Re-dissolution time s is 174 s.

Q: What about the “% Moisture” value ([2]; 25° C., 6 months) of the same compound?
A: Its value is 2.62%.

Q: And the “% Total impurity” value ([2]; 25° C., 6 months)?
A: The value was 1.21%.

Q: What about the Re-dissolution time s ([2]; 25° C., 6 months) of the same compound?
A: Its Re-dissolution time s is 128 s.

Q: What about the “% Moisture” value ([2]; 40° C., 0 day) of the same compound?
A: The value was 1.2%.

Q: What about the “% Total impurity” value ([2]; 40° C., 0 day) of the same compound?
A: The value was 0.33%.

Q: What about the Re-dissolution time s ([2]; 40° C., 0 day) of the same compound?
A: Its Re-dissolution time s is 148 s.

Q: What about the “% Moisture” value ([2]; 40° C., 5 day) of the same compound?
A: Its value is 1.0%.

Q: And the “% Total impurity” value ([2]; 40° C., 5 day)?
A: The value was 0.48%.

Q: And the Re-dissolution time s ([2]; 40° C., 5 day)?
A: Its Re-dissolution time s is 139 s.

Q: What about the “% Moisture” value ([2]; 40° C., 10 day) of the same compound?
A: Its value is 1.2%.

Q: And the “% Total impurity” value ([2]; 40° C., 10 day)?
A: The value was 0.54%.

Q: What about the Re-dissolution time s ([2]; 40° C., 10 day) of the same compound?
A: Its Re-dissolution time s is 118 s.

Q: And the “% Moisture” value ([2]; 40° C., 30 day)?
A: The value was 1.8%.

Q: What about the “% Total impurity” value ([2]; 40° C., 30 day) of the same compound?
A: The value was 0.69%.

Q: And the Re-dissolution time s ([2]; 40° C., 30 day)?
A: The Re-dissolution time s was 135 s.

Q: What about the pH value ([2]; 25° C., 0 day) of the same compound?
A: Its pH value is 7.4.

Q: What about the pH value ([2]; 25° C., 1 month) of the same compound?
A: The pH value was 7.5.

Q: And the pH value ([2]; 25° C., 2 months)?
A: The pH value was 7.2.

Q: What about the pH value ([2]; 25° C., 3 months) of the same compound?
A: Its pH value is 7.4.

Q: And the pH value ([2]; 25° C., 6 months)?
A: The pH value was 7.3.

Q: What about the pH value ([2]; 40° C., 0 day) of the same compound?
A: The pH value was 7.4.

Q: What about the pH value ([2]; 40° C., 5 day) of the same compound?
A: The pH value was 7.1.

Q: What about the pH value ([2]; 40° C., 10 day) of the same compound?
A: The pH value was 7.3.

Q: What about the pH value ([2]; 40° C., 30 day) of the same compound?
A: Its pH value is 7.4.

Reference: patent US20240374603A1, “PHARMACEUTICAL PREPARATION, PREPARATION METHOD THEREFOR AND USE THEREOF” (COHERENT BIOPHARMA (SUZHOU) LIMITED, priority 2021, published 2024)
